Experiment [1] has as its target T1, human IL17 (human, UniProt Q16552 24-155).
T1 construct: for that reason an apparent KD is reported; also called IL17-A
T1 sequence (looked up): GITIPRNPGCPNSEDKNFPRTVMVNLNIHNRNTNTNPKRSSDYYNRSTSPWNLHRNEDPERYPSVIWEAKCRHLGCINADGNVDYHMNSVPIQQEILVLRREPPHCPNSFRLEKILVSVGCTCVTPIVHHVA
The experiment can be described thus: SPR (Biacore), bispecific antibody captured by anti-human F(ab')2, human IL17 as analyte, 1:1 Langmuir. On the procedure: (§1) Around 6000 resonance units (RU) of the capturing system (15 μg/ml goat anti human F(ab′)2; Order Code: 28958325; GE Healthcare Bio-Sciences AB, Schweden) were coupled on a CMS chip at pH 5.0 by using an amine coupling kit supplied by the GE Healthcare. The sample and system buffer was PBS-T (10 mM phosphate buffered saline including 0.05% Tween 20) pH 7.4. The bispecific antibody was captured by injecting a 50 nM solution for 90 sec at a flow of 10 μl/min. Association was measured by injection human IL17 in various concentrations in solution for 3 min at a flow of 30 μl/min starting with 50 nM in 1:1 serial dilutions. The dissociation phase was monitored for up to 10 min and triggered by switching from the sample solution to running buffer. The surface was regenerated twice by 60 sec wash with a 10 mM glycine pH 2.1 solution at a flow rate of 30 μl/min. Bulk refractive index differences were corrected by subtracting the response obtained from a goat anti human F(ab′)2 surface. Blank injections are also subtracted (=double referencing). For calculation of apparent KD and other kinetic parameters, the Langmuir 1:1 model was used.
(§2) Binding of the multispecific antibodies to their respective target antigens, i.e. IL17 and TWEAK, was assessed by Biacore® as described in the general methods section.
In general terms: Surface plasmon resonance follows binding to a sensor surface in real time, without labels.

Experiment [2] concerns the target T1, human IL17. The experiment can be described thus: SPR (Biacore), bispecific antibody captured by anti-human F(ab')2, human IL17 as analyte, 1:1 Langmuir, apparent KD. As to the method:
as §1, §2

The next experiment deals with T2, TWEAK (human, UniProt O43508 94-249, limits assumed).
T2 construct: The method paragraph says only 'TWEAK'; also called human TWEAK; TNF-related weak inducer of apoptosis
T2 sequence (looked up): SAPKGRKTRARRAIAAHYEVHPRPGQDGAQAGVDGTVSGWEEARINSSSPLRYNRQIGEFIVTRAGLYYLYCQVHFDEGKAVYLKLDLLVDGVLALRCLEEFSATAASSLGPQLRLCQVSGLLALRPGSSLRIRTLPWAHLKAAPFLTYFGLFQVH
The experiment in a line: SPR (Biacore), TWEAK amine-coupled on C1 chip, bispecific antibody as analyte, 1:1 Langmuir. On the procedure: Around 100 RU of TWEAK was immobilized on the C1 chip surface at pH 5.0 using an amine coupling kit supplied by the GE Healthcare. The sample and system buffer was PBS-T (10 mM phosphate buffered saline including 0.05% Tween 20) pH 7.4. Association was measured by injection the bispecific antibody in various concentrations in solution for 3 min at a flow of 30 μl/min starting with 50 nM in 1:1 serial dilutions. The dissociation phase was monitored for up to 10 min and triggered by switching from the sample solution to running buffer. The surface was regenerated three times by 30 sec wash with a 3 M MgCl2 solution at a flow rate of 30 μl/min. Bulk refractive index differences were corrected by subtracting the response obtained from a blank-coupled surface. Blank injections are also subtracted (=double referencing). For calculation of KD and other kinetic parameters, the Langmuir 1:1 model was used.
as §2

Changes are numbered by the printed parent chain. In names and notes the source's numbering stands. Where only a bound is given, the exact number is not on record here.

We go through two molecules from US20170129962A1 (Hoffmann-La Roche, published 2017).

For orientation: koff means the first-order rate constant of dissociation. Usually kon stands for a measure of how fast the partners come together. Low values mean slow association, high ones fast association.

B1: TweakIL17-0132 (bispecific antibody, human IgG4 S228P, kappa)
light 1: DIVMTQSPLSLPVTPGEPASISCRSSQSLVHSNGDTYFHWYLQKPGQSPQLLIYKVSNRFSGVPDRFSGSGSGTDFTLKISRVEAEDVGVYYCSQTTHAPFTFGQGTKLEIKRTVAAPSVFIFPPSDKRLKSGTASVVCLLNNFYPREAKVQWKVDNALQSGNSQESVTEQDSKDSTYSLSSTLTLSKADYEKHKVYACEVTHQGLSSPVTKSFNRGEC
heavy 1: EVQLVESGGGLVQPGGSLRLSCAASGFSLDSYGVHWVRQATGKGLEWVSVIWSDGTTTYNSALKSRFTISRENAKNSLYLQMNSLRAGDTAVYYCARDTHYRLYYYAMDYWGQGTTVTVSSASTKGPSVFPLAPCSRSTSESTAALGCLVEDYFPEPVTVSWNSGALTSGVHTFPAVLQSSGLYSLSSVVTVPSSSLGTKTYTCNVDHKPSNTKVDERVESKYGPPCPPCPAPEFEGGPSVFLFPPKPKDTLMISRTPEVTCVVVDVSQEDPEVQFNWYVDGVEVHNAKTKPREEQFNSTYRVVSVLTVLHQDWLNGKEYKCKVSNKGLPSSIEKTISKAKGQPREPQVCTLPPSQEEMTKNQVSLSCAVKGFYPSDIAVEWESNGQPENNYKTTPPVLDSDGSFFLVSRLTVDKSRWQEGNVFSCSVMHEALHNHYTQKSLSLSLGK
light 2: DIQMTQSPSSVSASVGDRVTITCQASQNIYSNLAWYQQKPGKAPKLLIYTASYLASGVPSRFSGSGSGTDYTLTISSLQPEDFATYYCQTAYYNSRPDTVAFGGGTKVEIKSSASTKGPSVFPLAPCSRSTSESTAALGCLVKDYFPEPVTVSWNSGALTSGVHTFPAVLQSSGLYSLSSVVTVPSSSLGTKTYTCNVDHKPSNTKVDKRVESKYG
heavy 2: QVQLVQSGAEVKKPGSSVKVSCKASGFDFSTYYMSWVRQAPGQGLEWMGTVYVRQGTTYYASWLNGRVTITADESTSTAYMELSSLRSEDTAVYYCARGGYNYDDAFVIWGQGTLVTVSSASVAAPSVFIFPPSDEQLKSGTASVVCLLNNFYPREAKVQWKVDNALQSGNSQESVTEQDSKDSTYSLSSTLTLSKADYEKHKVYACEVTHQGLSSPVTKSFNRGECPPCPPCPAPEFEGGPSVFLFPPKPKDTLMISRTPEVTCVVVDVSQEDPEVQFNWYVDGVEVHNAKTKPREEQFNSTYRVVSVLTVLHQDWLNGKEYKCKVSNKGLPSSIEKTISKAKGQPREPQVYTLPPCQEEMTKNQVSLWCLVKGFYPSDIAVEWESNGQPENNYKTTPPVLDSDGSFFLYSRLTVDKSRWQEGNVFSCSVMHEALHNHYTQKSLSLSLGK
notes: CrossMAb CH1-CL, knob-into-hole with S354C/Y349C
In the experiment with human IL17 [1], B1 gave a koff of 0.00013 s⁻¹ and a kon of 1.39e+06 M⁻¹ s⁻¹. For the same molecule, the Kd in the experiment with human IL17 [2] was < 0.1 nM. In addition, in the experiment with TWEAK, the Kd is < 0.1 nM, the dissociation rate constant (koff) came to 4.79e-05 s⁻¹ and the kon was 1.17e+06 M⁻¹ s⁻¹.

B2: TweakIL17-0134 (bispecific antibody, human IgG4 S228P, kappa)
light 1: B1 light 1 with K128E, R129K
heavy 1: B1 heavy 1 with E217K
light 2: B1 light 2
heavy 2: B1 heavy 2 with Q137E
notes: as for B1
For the molecule B2, in the experiment with human IL17 [1], the koff was 0.000208 s⁻¹ and the kon was determined as 1.1e+07 M⁻¹ s⁻¹. Moreover, in the experiment with human IL17 [2], the Kd is < 0.1 nM. For the same molecule, in the experiment with TWEAK, the Kd was < 0.1 nM, the koff was 3e-05 s⁻¹ and the kon is 870000 M⁻¹ s⁻¹.
